Experimental data from PMC8944172 (Antiviral Research, 2022).

B1: REG10987 (antibody, V domains shown)
VH: QVQLVESGGGVVQPGRSLRLSCAASGFTFSNYAMYWVRQAPGKGLEWVAVISYDGSNKYYADSVKGRFTISRDNSKNTLYLQMNSLRTEDTAVYYCASGSDYGDYLLVYWGQGTLVTVSS
VL: QSALTQPASVSGSPGQSITISCTGTSSDVGGYNYVSWYQQHPGKAPKLMIYDVSKRPSGVSNRFSGSKSGNTASLTISGLQSEDEADYYCNSLTSISTWVFGGGTKLTVL
B2: REG10933 (antibody, V domains shown)
VH: QVQLVESGGGLVKPGGSLRLSCAASGFTFSDYYMSWIRQAPGKGLEWVSYITYSGSTIYYADSVKGRFTISRDNAKSSLYLQMNSLRAEDTAVYYCARDRGTTMVPFDYWGQGTLVTVSS
VL: DIQMTQSPSSLSASVGDRVTITCQASQDITNYLNWYQQKPGKAPKLLIYAASNLETGVPSRFSGSGSGTDFTFTISGLQPEDIATYYCQQYDNLPLTFGGGTKVEIK

Target: His-tagged RBD of SARS-CoV-2 (SARS-CoV-2, UniProt P0DTC2)
Assay: SPR

| Binder | binding result |
| --- | --- |
| B1 | binds |
| B2 | binds |
